Patent US20260210939A1, “MODIFIED OLFACTORY RECEPTORS” (GIVAUDAN SA, priority 2022, published 2026)

biological target: T1, OR7C1 (Homo sapiens, UniProt O76099, D296E/G302K/M297V/R299D/T295K/V126I); experiment: CRE-luciferase assay, HEK293T cells expressing OR7C1 (wild-type / modified C-terminus); format: cell-based; settings: OR7C1 variant, 1 μM Ambermax
T1 construct: Improved functional expression of modified OR-genes containing the truncated, optimized C-terminus; expressed in transfected cells; host or cells: HEK293T stably expressing human RTP1S(V227I) and RTP2(L220R)
T1 sequence (O76099 with tags, fused parts or gaps V126I/T295K/D296E/M297V/R299D/G302K): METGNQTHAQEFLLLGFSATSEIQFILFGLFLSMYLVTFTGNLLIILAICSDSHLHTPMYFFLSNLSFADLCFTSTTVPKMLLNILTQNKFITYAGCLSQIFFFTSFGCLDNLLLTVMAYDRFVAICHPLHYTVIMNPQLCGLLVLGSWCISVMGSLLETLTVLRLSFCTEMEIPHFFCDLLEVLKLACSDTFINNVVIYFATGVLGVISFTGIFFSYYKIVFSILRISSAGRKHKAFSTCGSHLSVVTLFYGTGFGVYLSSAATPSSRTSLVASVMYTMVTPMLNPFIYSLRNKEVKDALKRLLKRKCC
Source text: To test for possible variants of the sequence […]CC (SEQ ID NO: 86) leading to similar improved functional expression, different point mutations were introduced into the first 16 amino acids of this sequence (corresponding to […], SEQ ID NO: 10) and the variants were fused after the TM7 with OR7C1. […] The test concentrations were selected to fall into the range of partial activity of the wild-type sequence.

Row | Substance | % of the activation by the optimized sequence RNKEVKDALKRLLKRKCC [%]
1 | SEQ ID NO: 97 (RNKEVKQALKRLLKRKCC; source 1..18: note = C-terminal domain sequence) | 128.4
2 | SEQ ID NO: 98 (RNKEVKDAVKRLLKRKCC; source 1..18: note = C-terminal domain sequence) | 120.1
3 | SEQ ID NO: 101 (RNKEVKDALKKLLKRKCC; source 1..18: note = C-terminal domain sequence) | 86.8
4 | SEQ ID NO: 102 (RNKEVKDALKRLIKRKCC; source 1..18: note = C-terminal domain sequence) | 88.6
5 | SEQ ID NO: 105 (RNKEVKDALKRLLKKKCC; source 1..18: note = C-terminal domain sequence) | 106.7
6 | SEQ ID NO: 106 (RNKEVKDALKRLLKRRCC; source 1..18: note = C-terminal domain sequence) | 104.1
7 | SEQ ID NO: 108 (RNKQVKDALKRLLKRKCC; source 1..18: note = C-terminal domain sequence) | 42.0
8 | SEQ ID NO: 110 (RNKEVKGALKRLLKRKCC; source 1..18: note = C-terminal domain sequence) | 41.6
9 | SEQ ID NO: 111 (RNKEVKDALHRLLKRKCC; source 1..18: note = C-terminal domain sequence) | 44.4
10 | SEQ ID NO: 119 (RNKEVKDALRKLLKRKCC; source 1..18: note = C-terminal domain sequence) | 157.1
11 | SEQ ID NO: 124 (RNKEVKRALKRLLKRKYP; source 1..18: note = C-terminal domain sequence) | 239.7

Next, values leading:

Row | % of the activation by the optimized sequence RNKEVKDALKRLLKRKCC [%] | Substance
12 | 174.6 | SEQ ID NO: 99 (RNKEVKDAIKRLLKRKCC; source 1..18: note = C-terminal domain sequence)
13 | 86.0 | SEQ ID NO: 100 (RNKEVKDALRRLLKRKCC; source 1..18: note = C-terminal domain sequence)
14 | 207.1 | SEQ ID NO: 103 (RNKEVKDALKRLFKRKCC; source 1..18: note = C-terminal domain sequence)
15 | 96.3 | SEQ ID NO: 104 (RNKEVKDALKRLLRRKCC; source 1..18: note = C-terminal domain sequence)
16 | 53.2 | SEQ ID NO: 107 (RNKDVKDALKRLLKRKCC; source 1..18: note = C-terminal domain sequence)
17 | 43.8 | SEQ ID NO: 109 (RNKELKDALKRLLKRKCC; source 1..18: note = C-terminal domain sequence)
18 | 53.2 | SEQ ID NO: 112 (RNKEVKDALKRILKRKCC; source 1..18: note = C-terminal domain sequence)
19 | 63.2 | SEQ ID NO: 113 (RNKEVKDALKRLLGRKCC; source 1..18: note = C-terminal domain sequence)
20 | 90.4 | SEQ ID NO: 120 (RNKEVKDALKRLLRRRCC; source 1..18: note = C-terminal domain sequence)
21 | 312.9 | SEQ ID NO: 123 (RNKEVKRALKRLLKRKRR; source 1..18: note = C-terminal domain sequence)
22 | 254.2 | SEQ ID NO: 125 (RNKEVKRALKRLLKRKRF; source 1..18: note = C-terminal domain sequence)
